The experiment concerns the target T1, SARS-CoV-2 S1 subunit-Fc (Fc-tagged S1 protein, The Native Antigen Company) (SARS-CoV-2, UniProt P0DTC2 14-674).
T1 construct: domain: S1 subunit
Description: BLI (BLItz), His-tagged CoVHH1 on Ni-NTA sensor, S1-Fc 0-693.1 nM in solution, global fitting.

B1: His-tagged CoVHH1 (VHH)
VHH: AEVQLVESGGGQVETGGSLRLSCQASGSTFSDYVMAWFRQRPGKEREFVATISRNGGTTTYGSSVKGRFTISRDNAKSTVYLQMNSLKPEDTAVYYCYAVGGDGDSWGQGTQVTVSSEPKTPKPQSHHHHHH
notes: also called CoVHH1-His; His-tagged VHH
In the case of B1, the Kd (in general, the constant that tells how readily two partners part at equilibrium) came out at 7.13 nM; the koff – broadly, a measure of how fast the partners let go of each other – was found to be 0.000114 s⁻¹; the kon (usually the rate constant with which the complex forms) came to 16000 M⁻¹ s⁻¹.

The record behind these values is patent WO2021221136A1 (dated 2021).
